Legend:
Details in all cases: both partners purified
[1] = target: T1, amyloid beta peptide 1-42 (Aβ1–42) (human, UniProt P05067 672-713); assay: SPR; oligomeric Aβ1–42 (Preparation A, dilution of the stock), 1.1-0.055 μM, flowed over cypD or 17β-HSD10 captured by immobilised antibody; running buffer RB1 (10 mM HEPES pH 7.4, BSA 200 μg/mL, 5 mM Na+, 140 mM K+, 1 mM Mg2+); 25 °C, 20 µL/min; global fit, 1:1 Langmuir model
T1 construct: amyloid beta peptide of 42 amino acids, human, produced from amyloid precursor protein; numbers count on: the Aβ peptide; One peptide used in two states; Preparation B (NaOH) is called monomeric, though it might hold monomers and low oligomers; Preparation A (plain dilution of the stock) is called oligomeric, and the size of the oligomers is not determined; The states are told apart by the …

[2] = target: T1, amyloid beta peptide 1-42 (Aβ1–42); assay: SPR; monomeric Aβ (Aβ1–40 by Preparation C, HFIP; Aβ1–42 by Preparation B, NaOH), five concentrations, flowed over cypD or 17β-HSD10 captured by immobilised antibody; running buffer RB1 (10 mM HEPES pH 7.4, BSA 200 μg/mL, 5 mM Na+, 140 mM K+, 1 mM Mg2+); 25 °C, 20 µL/min; global fit, 1:1 Langmuir model
[3] = target: T2, amyloid beta peptide 1-40 (Aβ1–40) (human, UniProt P05067 672-711); assay: as above
T2 construct: amyloid beta peptide of 40 amino acids, human, produced from amyloid precursor protein; numbers count on: the Aβ peptide; Stock dissolved in 1% NH4OH and diluted by PBS to 100 μM; Preparation C (HFIP) is called monomeric, though it might hold monomers and low oligomers; also called monomeric Aβ_(1–40); source: synthetic peptide, bought: AnaSpec

Kd [1]: 5.3 ± 1.2 nM | koff [1]: 6.1e-05 s⁻¹ | kon [1]: 11100 M⁻¹ s⁻¹ | Kd [2]: 56.5 ± 5.4 nM | koff [2]: 0.000139 s⁻¹ | kon [2]: 2690 M⁻¹ s⁻¹ | Kd [3]: 160 ± 57.8 nM | koff [3]: 0.000174 s⁻¹ | kon [3]: 1170 M⁻¹ s⁻¹
B1: cyclophilin D (cypD), human recombinant (enzyme)
chain: not shown
notes: cyclophilin D, human recombinant, NCBI Gene ID 10105; Commercial protein; It was held on the chip by an immobilised anti-cypD antibody; source: bought: Fitzgerald
